Molecular target: Atto488-labeled GRB2-SH2 domain (UniProt P62993)
Test: MST

Chain of Atto488-labeled GRB2-SH2 domain (P62993 60-152): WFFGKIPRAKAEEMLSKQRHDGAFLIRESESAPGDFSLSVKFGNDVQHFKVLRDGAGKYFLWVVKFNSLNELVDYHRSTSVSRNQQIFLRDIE

Dual-phosphorylated H2AX (pH2AX) peptide
Kd: 2800 nM
